For data set [1], the target named is M1 protein (Streptococcus pyogenes) (UniProt Q99XV0). Description: mass photometry.
Data set [2] deals with M-related protein Mrp216 (mrp type 216), from GAS strain NS88.2 (Streptococcus pyogenes). The experiment in a line: mass photometry.
For data set [3], the target named is M-related protein (Mrp), mrp type 115, from GAS strain NS730 (Streptococcus pyogenes). The experiment in a line: SPR.
Data set [4] addresses M-related protein Mrp71 (mrp type 71), from GAS strain NS192 (Streptococcus pyogenes). Description: SPR. In general terms: SPR reads the build-up and loss of mass on a sensor chip optically.
Data set [5] concerns the target M-related protein (Mrp), mrp type 174, from GAS strain NS452 (Streptococcus pyogenes). Description: SPR.
In data set [6] the target is M-related protein Mrp193 (mrp type 193), from GAS strain NS80 (Streptococcus pyogenes). The experiment in a line: SPR.
Data set [7] has as its target M-related protein (Mrp), mrp type 298, from GAS strain 939–03 (Streptococcus pyogenes). The experiment in a line: SPR.
Data set [8] concerns the target M54 protein (Streptococcus pyogenes). The experiment in a line: mass photometry.
In data set [9] the target is M-related protein (Mrp), mrp type 8, from GAS strain NS931 (Streptococcus pyogenes). The experiment in a line: SPR.
Data set [10] concerns the target M-related protein Mrp105 (mrp type 105), from GAS strain NS210 (Streptococcus pyogenes). The experiment in a line: SPR.
The target of data set [11] is M-related protein (Mrp), mrp type 52, from GAS strain PRS66 (Streptococcus pyogenes). Description: SPR.
The target in data set [12] is M-related protein Mrp216 (mrp type 216), from GAS strain NS88.2 (Streptococcus pyogenes). The experiment in a line: SPR.
The data set “mass photometry” deals with the molecule itself. Description: mass photometry.

Several values for one entry are separate records, joined by “and”; a condition that tells them apart may be missing. Identical values can stand only once.

The values below come from article PMC10844976 (The Journal of Biological Chemistry, 2024).

The Kd is the free concentration of one partner at which half of the binding sites on the other are occupied at equilibrium, for simple one-to-one binding. Low readings indicate higher affinity, high ones lower affinity. “human IgG (pooled mixture of all IgG subclasses found in serum) (antibody)”: in data set [1], the stoichiometry N (IgG per M1 dimer) stood at 1. Further, the stoichiometry N (IgG per Mrp216 dimer) in [2] turned out to be 1. The equilibrium dissociation constant (Kd) in [3] was 10.2 nM; in data set [4] it was 11.1 nM; in [5], 8.8 nM; in [6], 6.4 nM; in data set [7], 9.3 nM.

By stoichiometry N is commonly meant the number of molecules, sites or subunits per partner or assembly. With M54 protein (natural protein), the stoichiometry N in data set [8] is 2 and 4.

Take human IgG3 (antibody): the Kd in data set [3] is 244 nM; in data set [9] it was 256 nM; in [4], 220 nM; in [10] it was 208 nM; in data set [5] it was 152 nM; in data set [6], 201 nM. Moreover, the dissociation constant (Kd) in data set [7] amounted to 226 nM; in data set [11], 145 nM; in data set [12] it was 302 nM.

In the case of human IgG2 (antibody), the Kd in data set [3] stood at 13.5 nM; in data set [9] it was 21.8 nM; in data set [4], 15.4 nM; in [10], 7.03 nM; in data set [5], 11 nM; in data set [6], 8.17 nM. Further, the Kd amounted to 19.4 nM in data set [7], 6.4 nM in [11] and 8.12 nM in [12].

For human IgG1 (antibody), the Kd in [3] was found to be 13.4 nM; in data set [9], 15.3 nM; in data set [4], 11.1 nM; in data set [5], 9.71 nM; in data set [7] it was 16 nM; in data set [11] it was 3 nM. In [12], the equilibrium dissociation constant (Kd) worked out at 5.4 nM.

Consider “M-related protein Mrp216 (mrp type 216), from GAS strain NS88.2 (natural protein)”, for which the stoichiometry N in data set [2] was found to be 2.

For the molecule human IgG4 (antibody), the Kd in data set [3] came to 7.4 nM; in data set [9] it was 11.9 nM; in [4] it was 15.2 nM; in data set [10], 10.6 nM; in data set [5] it was 11.9 nM; in [6] it was 6.5 nM. The values for the Kd in data set [7], in data set [11] and in [12] were 13.4 nM, 9.02 nM and 4.3 nM, respectively.

B1: M1 protein (natural protein)
chain: NGDGNPREVIEDLAANNPAIQNIRLRYENKDLKARLENAMEVAGRDFKRAEELEKAKQALEDQRKDLETKLKELQQDYDLAKESTSWDRQRLEKELEEKKEALELAIDQASRDYHRATALEKELEEKKKALELAIDQASQDYNRANVLEKELETITREQEINRNLLGNAKLELDQLSSEKEQLTIEKAKLEEEKQISDASRQSLRRDLDASREAKKQVEKDLANLTAELDKVKEDKQISDASRQGLRRDLDASREAKKQVEKDLANLTAELDKVKEEKQISDASRQGLRRDLDASREAKKQVEKALEEANSKLAALEKLNKELEESKKLTEKEKAELQAKLEAEAKALKEQLAKQAEELAKLRAGKASDSQTPDTKPGNKAVPGKGQAPQAGTKPNQNKAPMKETKRQLPST
Turning to B1, in “mass photometry”, the “stoichiometry N” value came out at 2.
